Experimental data reported in paper PMC4922050, “Stress-induced nuclear translocation of CDK5 suppresses neuronal death by downregulating ERK activation via VRK3 phosphorylation” (Scientific Reports, 2016).
Residue numbers refer to the chain shown, from its start.

Tests used:
Assay in all cases: pull-down; GST-VRK3 (wild type, S108A, S108E) incubated overnight with recombinant VHR or recombinant phospho-ERK2 in Triton lysis buffer with 1 mM DTT and 10% glycerol, then glutathione-sepharose 4B beads at 4 °C for 1 h
Conditions in all cases: both partners purified
[1] = biological target: T1, GST-tagged recombinant full-length VRK3 (vaccinia-related kinase 3), wild type (human, UniProt Q8IV63 1-474)
T1 construct: vaccinia-related kinase 3 (VRK3), human; coding region amplified by RT-PCR from mRNA of human cell lines and cloned into pGEX4T-3; full length (fragment F3 ends at amino acid 474); pGEX4T-3 vector; also called GST-VRK3; VRK3^WT; source: E. coli BL21 (DE3) pLysS, purified (glutathione-sepharose 4B)
T1 sequence (looked up): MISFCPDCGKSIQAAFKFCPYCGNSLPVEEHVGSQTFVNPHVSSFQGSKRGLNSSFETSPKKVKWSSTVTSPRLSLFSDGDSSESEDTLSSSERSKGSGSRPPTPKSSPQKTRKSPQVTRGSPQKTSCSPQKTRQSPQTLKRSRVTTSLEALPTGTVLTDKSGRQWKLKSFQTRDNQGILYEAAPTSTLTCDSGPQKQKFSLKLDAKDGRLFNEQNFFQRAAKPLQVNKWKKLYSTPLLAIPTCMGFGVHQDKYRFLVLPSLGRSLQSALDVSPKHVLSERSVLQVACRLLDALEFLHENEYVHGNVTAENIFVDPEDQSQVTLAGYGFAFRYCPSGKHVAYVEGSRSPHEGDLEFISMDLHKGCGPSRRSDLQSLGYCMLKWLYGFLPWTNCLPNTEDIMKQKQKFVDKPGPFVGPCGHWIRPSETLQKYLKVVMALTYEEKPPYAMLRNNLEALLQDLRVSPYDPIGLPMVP

[2] = biological target: T2, GST-VRK3^S108A (human, UniProt Q8IV63 1-474, S108A)
T2 construct: vaccinia-related kinase 3 (VRK3), human; S108A made by site-directed mutagenesis in pGEX4T-3; pGEX4T-3 vector; also called S108A mutant VRK3; source: E. coli BL21 (DE3) pLysS, purified (glutathione-sepharose 4B)
T2 sequence (looked up): T1 sequence (looked up) with S108A

[3] = biological target: T3, GST-VRK3^S108E (human, UniProt Q8IV63 1-474, S108E)
T3 construct: vaccinia-related kinase 3 (VRK3), human; S108E (phosphomimetic) made by site-directed mutagenesis in pGEX4T-3; pGEX4T-3 vector; also called S108E mutant VRK3; phosphomimetic mutant of VRK3; source: E. coli BL21 (DE3) pLysS, purified (glutathione-sepharose 4B)
T3 sequence (looked up): T1 sequence (looked up) with S108E

Measured: binding result

B1: recombinant VHR (vaccinia H1-related phosphatase) (enzyme, human, UniProt P51452 1-185, looked up)
chain: MSGSFELSVQDLNDLLSDGSGCYSLPSQPCNEVTPRIYVGNASVAQDIPKLQKLGITHVLNAAEGRSFMHVNTNANFYKDSGITYLGIKANDTQEFNLSAYFERAADFIDQALAQKNGRVLVHCREGYSRSPTLVIAYLMMRQKMDVKSALSIVRQNREIGPNDGFLAQLCQLNDRLAKEGKLKP
notes: vaccinia H1-related (VHR) phosphatase; coding region amplified by RT-PCR from mRNA of human cell lines (SH-SY5Y, HEK293A, HeLa); source: E. coli BL21 (DE3) pLysS, purified
binds: all assays above
